# Laboratory results published in US20230218739A1 (SICHUAN CLOVER BIOPHARMACEUTICALS, published 2023).
# B1: NGFR-Fc (nerve growth factor receptor NGFR (p75) fused to Fc) (Fc fusion)
# chain: KEACPTGLYTHSGECCKACNLGEGVAQPCGANQTVCEPCLDSVTFSDVVSATEPCKPCTECVGLQSMSAPCVEADDAVCRCAYGYYQDETTGRCEACRVCEAGSGLVFSCQDKQNTVCEECPDGTYSDEANHVDPCLPCTVCEDTERQLRECTRWADAECEEIPGRWITRSTPPEGSDSTAPSTQEPEAPPEQDLIASTVAGVVTTVMGSSQPVVTRGTTDN
# Target: Rabies G-Trimer (CTN-1 Strain) (ectodomain of rabies CTN-1 strain G protein fused in frame to Trimer-Tag) (Rabies virus CTN-1 strain)
binder,measurement,value
B1,Kd,2.92 nM
same,koff,2.39e-05 s⁻¹
same,kon,8170 M⁻¹ s⁻¹
